The source of these data is publication PMC3796201 (Nature structural & molecular biology, 2013).

For the assay, the target named is CRM1 (human, recombinant, His-tagged) (human, UniProt O14980 1-1071). Description: pull-down.
CRM1 (human, recombinant, His-tagged), sequence (O14980 whole entry): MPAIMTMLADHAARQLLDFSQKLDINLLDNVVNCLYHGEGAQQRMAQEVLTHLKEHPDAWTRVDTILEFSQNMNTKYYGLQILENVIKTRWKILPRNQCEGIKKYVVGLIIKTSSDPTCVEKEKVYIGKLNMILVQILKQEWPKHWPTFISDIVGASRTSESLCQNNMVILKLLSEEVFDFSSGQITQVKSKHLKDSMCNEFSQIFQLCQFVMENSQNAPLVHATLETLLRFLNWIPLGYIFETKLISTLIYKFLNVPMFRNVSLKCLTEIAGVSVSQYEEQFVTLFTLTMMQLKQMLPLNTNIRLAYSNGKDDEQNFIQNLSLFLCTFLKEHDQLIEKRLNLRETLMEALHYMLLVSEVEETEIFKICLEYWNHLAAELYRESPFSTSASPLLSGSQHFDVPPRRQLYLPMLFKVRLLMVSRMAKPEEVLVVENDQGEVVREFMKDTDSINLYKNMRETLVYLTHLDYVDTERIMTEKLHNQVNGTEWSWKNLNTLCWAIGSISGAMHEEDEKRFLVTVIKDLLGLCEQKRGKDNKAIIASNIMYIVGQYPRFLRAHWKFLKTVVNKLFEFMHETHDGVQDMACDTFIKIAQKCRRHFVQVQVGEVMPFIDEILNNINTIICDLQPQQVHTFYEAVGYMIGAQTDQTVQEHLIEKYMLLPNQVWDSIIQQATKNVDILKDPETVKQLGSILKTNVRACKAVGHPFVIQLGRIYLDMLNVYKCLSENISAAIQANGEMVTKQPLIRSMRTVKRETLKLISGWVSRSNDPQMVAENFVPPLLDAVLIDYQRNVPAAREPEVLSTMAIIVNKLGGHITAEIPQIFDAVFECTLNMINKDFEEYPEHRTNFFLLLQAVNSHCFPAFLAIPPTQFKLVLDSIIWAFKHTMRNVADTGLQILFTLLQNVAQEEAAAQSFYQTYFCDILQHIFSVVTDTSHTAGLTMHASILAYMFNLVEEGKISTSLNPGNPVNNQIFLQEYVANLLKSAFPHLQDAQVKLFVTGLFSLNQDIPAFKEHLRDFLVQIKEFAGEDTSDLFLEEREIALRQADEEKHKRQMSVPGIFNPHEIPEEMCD

B1: GST-RAD51 F86E (natural protein, human, UniProt Q06609 1-339, looked up)
chain: MAMQMQLEANADTSVEEESFGPQPISRLEQCGINANDVKKLEEAGFHTVEAVAYAPKKELINIKGISEAKADKILAEAAKLVPMGETTATEFHQRRSEIIQITTGSKELDKLLQGGIETGSITEMFGEFRTGKTQICHTLAVTCQLPIDRGGGEGKAMYIDTEGTFRPERLLAVAERYGLSGSDVLDNVAYARAFNTDHQTQLLYQASAMMVESRYALLIVDSATALYRTDYSGRGELSARQMHLARFLRMLLRLADEFGVAVVITNQVVAQVDGAAMFAADPKKPIGGNIIAHASTTRLYLRKGRGETRICKIYDSPCLPEAEAMFAINADGVGDAKD
Turning to B1, the binding result is on record as “binds”.
